In patent US20150344570A1 (published 2015):

T1: FcγRIIa R (extracellular domain, His tag at the C terminus) (human, UniProt P12318 34-217)
T1 construct: extracellular domain; Soluble analyte in Biacore; also called FcgRIIa R type; 2aR
T1 sequence (looked up): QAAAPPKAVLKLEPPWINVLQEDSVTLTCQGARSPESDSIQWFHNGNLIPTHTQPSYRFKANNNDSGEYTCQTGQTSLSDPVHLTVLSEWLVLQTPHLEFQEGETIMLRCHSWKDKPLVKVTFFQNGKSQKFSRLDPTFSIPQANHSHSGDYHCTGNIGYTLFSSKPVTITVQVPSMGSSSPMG

B1: GpH7-B3 variant L328_07I/GpL16-k0 (antibody, human IgG1, kappa)
heavy: not shown
light: DIVMTQSPLSLPVTPGEPASISCQASESLVHSNRNTYLHWYLQKPGQSPQLLIYKVSNRFSGVPDRFSGSGSGTDFTLKISRVEAEDVGVYYCSQNTHVPPTFGQGTKVEIERTVAAPSVFIFPPSDEQLKSGTASVVCLLNNFYPREAKVQWKVDNALQSGNSQESVTEQDSKDSTYSLSSTLTLSKADYEKHKVYACEVTHQGLSSPVTKSFNRGEC
notes: homodimerized; also called Ho Ab
B2: GpH7-B3 variant L328_15Y/GpL16-k0 (antibody, human IgG1, kappa)
heavy: not shown
light: DIVMTQSPLSLPVTPGEPASISCQASESLVHSNRNTYLHWYLQKPGQSPQLLIYKVSNRFSGVPDRFSGSGSGTDFTLKISRVEAEDVGVYYCSQNTHVPPTFGQGTKVEIERTVAAPSVFIFPPSDEQLKSGTASVVCLLNNFYPREAKVQWKVDNALQSGNSQESVTEQDSKDSTYSLSSTLTLSKADYEKHKVYACEVTHQGLSSPVTKSFNRGEC
notes: as for B1
B3: GpH7-B3 variant P238_08L/GpL16-k0 (antibody, human IgG1, kappa)
heavy: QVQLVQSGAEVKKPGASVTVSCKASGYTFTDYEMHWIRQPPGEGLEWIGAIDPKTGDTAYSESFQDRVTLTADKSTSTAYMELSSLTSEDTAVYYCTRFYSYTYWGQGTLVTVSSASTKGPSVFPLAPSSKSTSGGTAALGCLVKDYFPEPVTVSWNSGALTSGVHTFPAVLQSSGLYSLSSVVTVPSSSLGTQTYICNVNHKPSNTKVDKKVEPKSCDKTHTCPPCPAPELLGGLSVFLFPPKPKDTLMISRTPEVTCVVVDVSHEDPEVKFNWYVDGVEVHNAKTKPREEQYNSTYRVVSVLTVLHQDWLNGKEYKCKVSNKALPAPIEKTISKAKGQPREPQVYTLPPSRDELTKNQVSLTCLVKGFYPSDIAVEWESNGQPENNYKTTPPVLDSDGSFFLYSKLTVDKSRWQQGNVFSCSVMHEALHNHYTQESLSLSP
light: DIVMTQSPLSLPVTPGEPASISCQASESLVHSNRNTYLHWYLQKPGQSPQLLIYKVSNRFSGVPDRFSGSGSGTDFTLKISRVEAEDVGVYYCSQNTHVPPTFGQGTKVEIERTVAAPSVFIFPPSDEQLKSGTASVVCLLNNFYPREAKVQWKVDNALQSGNSQESVTEQDSKDSTYSLSSTLTLSKADYEKHKVYACEVTHQGLSSPVTKSFNRGEC
notes: as for B1
B4: GpH7-B3 variant P271_01G/GpL16-k0 (antibody, human IgG1, kappa)
heavy: not shown
light: DIVMTQSPLSLPVTPGEPASISCQASESLVHSNRNTYLHWYLQKPGQSPQLLIYKVSNRFSGVPDRFSGSGSGTDFTLKISRVEAEDVGVYYCSQNTHVPPTFGQGTKVEIERTVAAPSVFIFPPSDEQLKSGTASVVCLLNNFYPREAKVQWKVDNALQSGNSQESVTEQDSKDSTYSLSSTLTLSKADYEKHKVYACEVTHQGLSSPVTKSFNRGEC
notes: as for B1
B5: GpH7-B3 variant S239_01G/GpL16-k0 (antibody, human IgG1, kappa)
heavy: not shown
light: DIVMTQSPLSLPVTPGEPASISCQASESLVHSNRNTYLHWYLQKPGQSPQLLIYKVSNRFSGVPDRFSGSGSGTDFTLKISRVEAEDVGVYYCSQNTHVPPTFGQGTKVEIERTVAAPSVFIFPPSDEQLKSGTASVVCLLNNFYPREAKVQWKVDNALQSGNSQESVTEQDSKDSTYSLSSTLTLSKADYEKHKVYACEVTHQGLSSPVTKSFNRGEC
notes: as for B1
B6: GpH7-B3 variant S239_09D/GpL16-k0 (antibody, human IgG1, kappa)
heavy: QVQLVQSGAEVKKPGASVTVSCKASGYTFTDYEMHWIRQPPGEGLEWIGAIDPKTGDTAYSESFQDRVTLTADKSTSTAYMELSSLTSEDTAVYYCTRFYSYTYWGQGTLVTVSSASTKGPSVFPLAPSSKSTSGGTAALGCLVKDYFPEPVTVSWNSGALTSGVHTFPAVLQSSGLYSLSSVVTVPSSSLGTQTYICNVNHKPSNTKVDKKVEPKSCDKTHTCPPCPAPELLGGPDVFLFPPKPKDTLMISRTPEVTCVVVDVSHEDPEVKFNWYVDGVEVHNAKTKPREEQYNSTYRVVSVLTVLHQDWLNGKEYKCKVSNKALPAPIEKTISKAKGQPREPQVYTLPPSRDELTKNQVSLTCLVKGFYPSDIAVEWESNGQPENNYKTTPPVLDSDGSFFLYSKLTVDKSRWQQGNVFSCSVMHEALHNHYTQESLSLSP
light: DIVMTQSPLSLPVTPGEPASISCQASESLVHSNRNTYLHWYLQKPGQSPQLLIYKVSNRFSGVPDRFSGSGSGTDFTLKISRVEAEDVGVYYCSQNTHVPPTFGQGTKVEIERTVAAPSVFIFPPSDEQLKSGTASVVCLLNNFYPREAKVQWKVDNALQSGNSQESVTEQDSKDSTYSLSSTLTLSKADYEKHKVYACEVTHQGLSSPVTKSFNRGEC
notes: as for B1
B7: GpH7-B3 variant S267_01G/GpL16-k0 (antibody, human IgG1, kappa)
heavy: not shown
light: DIVMTQSPLSLPVTPGEPASISCQASESLVHSNRNTYLHWYLQKPGQSPQLLIYKVSNRFSGVPDRFSGSGSGTDFTLKISRVEAEDVGVYYCSQNTHVPPTFGQGTKVEIERTVAAPSVFIFPPSDEQLKSGTASVVCLLNNFYPREAKVQWKVDNALQSGNSQESVTEQDSKDSTYSLSSTLTLSKADYEKHKVYACEVTHQGLSSPVTKSFNRGEC
notes: as for B1
B8: GpH7-B3 variant S267_02A/GpL16-k0 (antibody, human IgG1, kappa)
heavy: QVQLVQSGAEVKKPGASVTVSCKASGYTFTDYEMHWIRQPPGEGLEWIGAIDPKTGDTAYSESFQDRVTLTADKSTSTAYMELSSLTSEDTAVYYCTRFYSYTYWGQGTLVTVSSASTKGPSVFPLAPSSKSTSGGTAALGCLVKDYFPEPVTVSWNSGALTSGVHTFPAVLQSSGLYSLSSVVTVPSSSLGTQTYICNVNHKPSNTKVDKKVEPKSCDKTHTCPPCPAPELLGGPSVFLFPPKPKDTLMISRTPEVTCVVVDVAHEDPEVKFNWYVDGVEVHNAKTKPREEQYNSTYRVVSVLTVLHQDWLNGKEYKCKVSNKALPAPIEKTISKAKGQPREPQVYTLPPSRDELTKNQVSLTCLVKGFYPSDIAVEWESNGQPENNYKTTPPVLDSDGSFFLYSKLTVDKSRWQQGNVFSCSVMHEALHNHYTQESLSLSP
light: DIVMTQSPLSLPVTPGEPASISCQASESLVHSNRNTYLHWYLQKPGQSPQLLIYKVSNRFSGVPDRFSGSGSGTDFTLKISRVEAEDVGVYYCSQNTHVPPTFGQGTKVEIERTVAAPSVFIFPPSDEQLKSGTASVVCLLNNFYPREAKVQWKVDNALQSGNSQESVTEQDSKDSTYSLSSTLTLSKADYEKHKVYACEVTHQGLSSPVTKSFNRGEC
notes: as for B1
B9: GpH7-B3 variant S267_07I/GpL16-k0 (antibody, human IgG1, kappa)
heavy: not shown
light: DIVMTQSPLSLPVTPGEPASISCQASESLVHSNRNTYLHWYLQKPGQSPQLLIYKVSNRFSGVPDRFSGSGSGTDFTLKISRVEAEDVGVYYCSQNTHVPPTFGQGTKVEIERTVAAPSVFIFPPSDEQLKSGTASVVCLLNNFYPREAKVQWKVDNALQSGNSQESVTEQDSKDSTYSLSSTLTLSKADYEKHKVYACEVTHQGLSSPVTKSFNRGEC
notes: as for B1
B10: GpH7-B3 variant S337_14T/GpL16-k0 (antibody, human IgG1, kappa)
heavy: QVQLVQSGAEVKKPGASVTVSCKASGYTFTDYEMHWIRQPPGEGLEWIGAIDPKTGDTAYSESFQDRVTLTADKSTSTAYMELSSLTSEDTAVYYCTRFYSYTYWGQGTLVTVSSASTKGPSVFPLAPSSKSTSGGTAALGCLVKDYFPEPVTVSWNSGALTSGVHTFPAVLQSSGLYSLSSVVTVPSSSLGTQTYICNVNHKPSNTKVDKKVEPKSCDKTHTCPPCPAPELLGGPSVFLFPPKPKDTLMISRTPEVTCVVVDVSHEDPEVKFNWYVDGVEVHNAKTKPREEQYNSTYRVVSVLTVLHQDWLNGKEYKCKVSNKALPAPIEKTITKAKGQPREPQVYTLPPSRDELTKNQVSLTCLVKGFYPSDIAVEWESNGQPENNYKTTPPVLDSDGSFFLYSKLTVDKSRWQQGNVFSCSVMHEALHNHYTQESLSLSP
light: DIVMTQSPLSLPVTPGEPASISCQASESLVHSNRNTYLHWYLQKPGQSPQLLIYKVSNRFSGVPDRFSGSGSGTDFTLKISRVEAEDVGVYYCSQNTHVPPTFGQGTKVEIERTVAAPSVFIFPPSDEQLKSGTASVVCLLNNFYPREAKVQWKVDNALQSGNSQESVTEQDSKDSTYSLSSTLTLSKADYEKHKVYACEVTHQGLSSPVTKSFNRGEC
notes: as for B1
B11: GpH7-B3 variant T335_04F/GpL16-k0 (antibody, human IgG1, kappa)
heavy: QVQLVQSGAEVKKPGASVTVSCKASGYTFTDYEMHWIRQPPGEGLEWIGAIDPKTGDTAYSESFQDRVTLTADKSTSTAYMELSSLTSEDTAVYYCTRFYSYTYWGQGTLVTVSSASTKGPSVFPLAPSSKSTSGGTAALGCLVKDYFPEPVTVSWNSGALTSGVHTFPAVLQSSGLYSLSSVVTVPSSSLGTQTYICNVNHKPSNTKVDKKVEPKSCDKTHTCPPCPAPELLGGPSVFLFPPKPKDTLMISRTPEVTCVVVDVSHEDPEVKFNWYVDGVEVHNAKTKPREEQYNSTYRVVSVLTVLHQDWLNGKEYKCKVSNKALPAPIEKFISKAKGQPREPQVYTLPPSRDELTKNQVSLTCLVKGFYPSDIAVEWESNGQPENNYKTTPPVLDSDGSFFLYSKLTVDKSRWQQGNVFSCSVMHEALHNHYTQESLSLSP
light: DIVMTQSPLSLPVTPGEPASISCQASESLVHSNRNTYLHWYLQKPGQSPQLLIYKVSNRFSGVPDRFSGSGSGTDFTLKISRVEAEDVGVYYCSQNTHVPPTFGQGTKVEIERTVAAPSVFIFPPSDEQLKSGTASVVCLLNNFYPREAKVQWKVDNALQSGNSQESVTEQDSKDSTYSLSSTLTLSKADYEKHKVYACEVTHQGLSSPVTKSFNRGEC
notes: as for B1
B12: GpH7-B3 variant T335_06M/GpL16-k0 (antibody, human IgG1, kappa)
heavy: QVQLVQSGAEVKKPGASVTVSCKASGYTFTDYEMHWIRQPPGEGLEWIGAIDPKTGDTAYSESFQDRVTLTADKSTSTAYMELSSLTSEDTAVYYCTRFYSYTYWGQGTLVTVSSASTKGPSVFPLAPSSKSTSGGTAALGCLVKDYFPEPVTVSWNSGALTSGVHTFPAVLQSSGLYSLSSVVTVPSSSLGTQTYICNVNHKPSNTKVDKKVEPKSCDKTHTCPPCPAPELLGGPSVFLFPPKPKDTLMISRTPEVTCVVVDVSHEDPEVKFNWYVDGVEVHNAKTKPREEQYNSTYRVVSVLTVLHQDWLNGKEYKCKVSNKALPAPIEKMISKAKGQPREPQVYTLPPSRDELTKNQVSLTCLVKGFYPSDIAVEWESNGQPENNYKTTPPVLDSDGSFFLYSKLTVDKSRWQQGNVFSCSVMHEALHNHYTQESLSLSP
light: DIVMTQSPLSLPVTPGEPASISCQASESLVHSNRNTYLHWYLQKPGQSPQLLIYKVSNRFSGVPDRFSGSGSGTDFTLKISRVEAEDVGVYYCSQNTHVPPTFGQGTKVEIERTVAAPSVFIFPPSDEQLKSGTASVVCLLNNFYPREAKVQWKVDNALQSGNSQESVTEQDSKDSTYSLSSTLTLSKADYEKHKVYACEVTHQGLSSPVTKSFNRGEC
notes: as for B1
B13: GpH7-B3 variant T335_08L/GpL16-k0 (antibody, human IgG1, kappa)
heavy: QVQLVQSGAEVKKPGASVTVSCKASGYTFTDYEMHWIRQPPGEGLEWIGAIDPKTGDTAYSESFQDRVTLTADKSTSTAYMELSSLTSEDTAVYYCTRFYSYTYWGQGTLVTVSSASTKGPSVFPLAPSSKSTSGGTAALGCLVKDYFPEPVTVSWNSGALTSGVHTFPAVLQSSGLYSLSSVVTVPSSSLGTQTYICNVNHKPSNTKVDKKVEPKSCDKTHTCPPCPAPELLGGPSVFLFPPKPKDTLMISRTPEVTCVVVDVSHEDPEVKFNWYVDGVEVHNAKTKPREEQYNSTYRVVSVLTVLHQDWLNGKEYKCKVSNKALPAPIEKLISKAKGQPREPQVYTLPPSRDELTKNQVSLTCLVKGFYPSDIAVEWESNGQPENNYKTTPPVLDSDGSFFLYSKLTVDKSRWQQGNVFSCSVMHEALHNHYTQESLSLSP
light: DIVMTQSPLSLPVTPGEPASISCQASESLVHSNRNTYLHWYLQKPGQSPQLLIYKVSNRFSGVPDRFSGSGSGTDFTLKISRVEAEDVGVYYCSQNTHVPPTFGQGTKVEIERTVAAPSVFIFPPSDEQLKSGTASVVCLLNNFYPREAKVQWKVDNALQSGNSQESVTEQDSKDSTYSLSSTLTLSKADYEKHKVYACEVTHQGLSSPVTKSFNRGEC
notes: as for B1
B14: GpH7-B3 variant T335_09D/GpL16-k0 (antibody, human IgG1, kappa)
heavy: not shown
light: DIVMTQSPLSLPVTPGEPASISCQASESLVHSNRNTYLHWYLQKPGQSPQLLIYKVSNRFSGVPDRFSGSGSGTDFTLKISRVEAEDVGVYYCSQNTHVPPTFGQGTKVEIERTVAAPSVFIFPPSDEQLKSGTASVVCLLNNFYPREAKVQWKVDNALQSGNSQESVTEQDSKDSTYSLSSTLTLSKADYEKHKVYACEVTHQGLSSPVTKSFNRGEC
notes: as for B1
B15: GpH7-B3 variant T335_16H/GpL16-k0 (antibody, human IgG1, kappa)
heavy: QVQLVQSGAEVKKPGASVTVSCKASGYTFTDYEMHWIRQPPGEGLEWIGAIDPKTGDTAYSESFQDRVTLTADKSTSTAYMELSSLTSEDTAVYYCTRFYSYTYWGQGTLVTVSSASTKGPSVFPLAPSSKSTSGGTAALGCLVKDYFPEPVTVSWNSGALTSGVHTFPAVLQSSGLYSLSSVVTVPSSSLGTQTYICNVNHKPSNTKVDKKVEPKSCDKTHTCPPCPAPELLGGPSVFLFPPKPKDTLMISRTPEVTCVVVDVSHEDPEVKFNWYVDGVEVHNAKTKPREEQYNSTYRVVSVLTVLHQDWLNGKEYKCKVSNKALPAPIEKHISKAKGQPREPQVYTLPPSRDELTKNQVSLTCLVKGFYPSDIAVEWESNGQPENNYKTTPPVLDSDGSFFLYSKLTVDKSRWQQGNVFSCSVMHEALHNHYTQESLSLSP
light: DIVMTQSPLSLPVTPGEPASISCQASESLVHSNRNTYLHWYLQKPGQSPQLLIYKVSNRFSGVPDRFSGSGSGTDFTLKISRVEAEDVGVYYCSQNTHVPPTFGQGTKVEIERTVAAPSVFIFPPSDEQLKSGTASVVCLLNNFYPREAKVQWKVDNALQSGNSQESVTEQDSKDSTYSLSSTLTLSKADYEKHKVYACEVTHQGLSSPVTKSFNRGEC
notes: as for B1
B16: GpH7-B3 variant T335_18N/GpL16-k0 (antibody, human IgG1, kappa)
heavy: not shown
light: DIVMTQSPLSLPVTPGEPASISCQASESLVHSNRNTYLHWYLQKPGQSPQLLIYKVSNRFSGVPDRFSGSGSGTDFTLKISRVEAEDVGVYYCSQNTHVPPTFGQGTKVEIERTVAAPSVFIFPPSDEQLKSGTASVVCLLNNFYPREAKVQWKVDNALQSGNSQESVTEQDSKDSTYSLSSTLTLSKADYEKHKVYACEVTHQGLSSPVTKSFNRGEC
notes: as for B1
B17: GpH7-B3 variant T335_19Q/GpL16-k0 (antibody, human IgG1, kappa)
heavy: not shown
light: DIVMTQSPLSLPVTPGEPASISCQASESLVHSNRNTYLHWYLQKPGQSPQLLIYKVSNRFSGVPDRFSGSGSGTDFTLKISRVEAEDVGVYYCSQNTHVPPTFGQGTKVEIERTVAAPSVFIFPPSDEQLKSGTASVVCLLNNFYPREAKVQWKVDNALQSGNSQESVTEQDSKDSTYSLSSTLTLSKADYEKHKVYACEVTHQGLSSPVTKSFNRGEC
notes: as for B1
B18: GpH7-B3 variant T335_20W/GpL16-k0 (antibody, human IgG1, kappa)
heavy: not shown
light: DIVMTQSPLSLPVTPGEPASISCQASESLVHSNRNTYLHWYLQKPGQSPQLLIYKVSNRFSGVPDRFSGSGSGTDFTLKISRVEAEDVGVYYCSQNTHVPPTFGQGTKVEIERTVAAPSVFIFPPSDEQLKSGTASVVCLLNNFYPREAKVQWKVDNALQSGNSQESVTEQDSKDSTYSLSSTLTLSKADYEKHKVYACEVTHQGLSSPVTKSFNRGEC
notes: as for B1
B19: GpH7-B3 variant V266_06M/GpL16-k0 (antibody, human IgG1, kappa)
heavy: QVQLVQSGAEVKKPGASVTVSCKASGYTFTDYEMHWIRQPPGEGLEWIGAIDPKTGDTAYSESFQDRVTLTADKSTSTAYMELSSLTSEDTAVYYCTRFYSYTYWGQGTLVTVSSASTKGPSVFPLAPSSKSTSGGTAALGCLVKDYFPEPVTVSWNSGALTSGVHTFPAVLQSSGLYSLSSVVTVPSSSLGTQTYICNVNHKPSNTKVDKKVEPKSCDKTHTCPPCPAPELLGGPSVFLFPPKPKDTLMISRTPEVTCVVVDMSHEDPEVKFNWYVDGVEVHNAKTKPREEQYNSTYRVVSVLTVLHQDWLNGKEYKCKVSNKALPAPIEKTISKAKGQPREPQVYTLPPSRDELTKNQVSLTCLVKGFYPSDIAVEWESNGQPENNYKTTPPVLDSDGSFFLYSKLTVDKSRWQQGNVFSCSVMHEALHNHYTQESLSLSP
light: DIVMTQSPLSLPVTPGEPASISCQASESLVHSNRNTYLHWYLQKPGQSPQLLIYKVSNRFSGVPDRFSGSGSGTDFTLKISRVEAEDVGVYYCSQNTHVPPTFGQGTKVEIERTVAAPSVFIFPPSDEQLKSGTASVVCLLNNFYPREAKVQWKVDNALQSGNSQESVTEQDSKDSTYSLSSTLTLSKADYEKHKVYACEVTHQGLSSPVTKSFNRGEC
notes: as for B1
B20: GpH7-B3 variant Y296_20W/GpL16-k0 (antibody, human IgG1, kappa)
heavy: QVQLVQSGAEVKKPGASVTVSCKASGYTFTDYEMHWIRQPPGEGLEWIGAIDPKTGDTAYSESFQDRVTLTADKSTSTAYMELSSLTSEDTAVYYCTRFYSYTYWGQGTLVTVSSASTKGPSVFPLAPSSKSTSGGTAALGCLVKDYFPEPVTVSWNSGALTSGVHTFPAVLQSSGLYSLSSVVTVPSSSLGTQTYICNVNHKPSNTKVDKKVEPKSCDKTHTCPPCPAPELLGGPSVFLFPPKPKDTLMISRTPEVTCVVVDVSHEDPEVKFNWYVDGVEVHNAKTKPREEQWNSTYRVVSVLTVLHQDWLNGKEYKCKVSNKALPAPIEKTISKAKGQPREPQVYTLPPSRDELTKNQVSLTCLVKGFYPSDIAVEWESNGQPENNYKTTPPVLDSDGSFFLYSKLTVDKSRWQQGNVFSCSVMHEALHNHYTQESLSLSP
light: DIVMTQSPLSLPVTPGEPASISCQASESLVHSNRNTYLHWYLQKPGQSPQLLIYKVSNRFSGVPDRFSGSGSGTDFTLKISRVEAEDVGVYYCSQNTHVPPTFGQGTKVEIERTVAAPSVFIFPPSDEQLKSGTASVVCLLNNFYPREAKVQWKVDNALQSGNSQESVTEQDSKDSTYSLSSTLTLSKADYEKHKVYACEVTHQGLSSPVTKSFNRGEC
notes: as for B1
B21: GpH7-B3 variant Y300_04F/GpL16-k0 (antibody, human IgG1, kappa)
heavy: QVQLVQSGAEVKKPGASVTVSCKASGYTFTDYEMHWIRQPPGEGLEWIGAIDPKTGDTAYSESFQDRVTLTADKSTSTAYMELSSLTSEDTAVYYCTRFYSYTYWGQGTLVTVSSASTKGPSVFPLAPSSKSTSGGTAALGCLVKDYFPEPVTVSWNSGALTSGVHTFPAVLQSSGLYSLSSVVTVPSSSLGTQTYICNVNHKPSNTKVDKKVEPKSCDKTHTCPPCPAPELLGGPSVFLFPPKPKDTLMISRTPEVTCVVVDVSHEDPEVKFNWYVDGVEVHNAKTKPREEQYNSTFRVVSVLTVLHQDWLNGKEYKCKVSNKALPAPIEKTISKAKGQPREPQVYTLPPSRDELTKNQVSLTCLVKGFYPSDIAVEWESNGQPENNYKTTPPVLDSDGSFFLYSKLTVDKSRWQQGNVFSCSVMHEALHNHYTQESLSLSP
light: DIVMTQSPLSLPVTPGEPASISCQASESLVHSNRNTYLHWYLQKPGQSPQLLIYKVSNRFSGVPDRFSGSGSGTDFTLKISRVEAEDVGVYYCSQNTHVPPTFGQGTKVEIERTVAAPSVFIFPPSDEQLKSGTASVVCLLNNFYPREAKVQWKVDNALQSGNSQESVTEQDSKDSTYSLSSTLTLSKADYEKHKVYACEVTHQGLSSPVTKSFNRGEC
notes: as for B1

Target: T1, FcγRIIa R (extracellular domain, His …)
Assay: SPR (Biacore), relative binding, control GpH7-B3/GpL16-k0 = 100
Method: Analysis of interaction between objective antibody and the FcγR was carried out using Biacore T100 (GE Healthcare). HBS-EP+ (GE Healthcare) was used as the running buffer, and the measurement temperature was set to 25° C. Chips produced by immobilizing the antigen peptide by the amine coupling method to a Series S Sencor Chip CM5 (GE Healthcare), or alternatively, chips produced by allowing preliminarily biotinylated antigen peptides to interact with and immobilize onto a Series S Sensor Chip SA (certified) (GE Healthcare) were used. Antibodies of interest were captured onto an antigen peptide-immobilized chip, and allowed to interact to each FcγR diluted with running buffer. To regenerate and repeatedly use the chip, the antibodies captured on the chip were washed off by reacting 10 mM glycine-HCl, pH 1.5.

Ho/Con_2aR	Binder
140 % of control	B1
157 % of control	B2
148 % of control	B3
150 % of control	B4
132 % of control	B5
142 % of control	B6
116 % of control	B7
160 % of control	B8
113 % of control	B9
110 % of control	B10
108 % of control	B11
107 % of control	B12
108 % of control	B13
113 % of control	B14
102 % of control	B15
100 % of control	B16
102 % of control	B17
101 % of control	B18
146 % of control	B19
107 % of control	B20
109 % of control	B21
